In paper PMC3854711, “Handling Uncertainty in Dynamic Models: The Pentose Phosphate Pathway in Trypanosoma brucei” (PLoS Computational Biology, 2013) one finds Km data, which are given here for 1 protein.

A word on the Km: it is the substrate concentration at which the rate is half of its maximum.

Substrate in data set [1]: Nc1ncnc2c1ncn2[C@@H]1O[C@H](COP(=O)(O)OP(=O)(O)O)[C@@H](O)[C@H]1O
The experiment in a line: coupled spectrophotometric assay (HXK/G6PDH, NADP). The format is biochemical, Trypanosoma brucei. As to conditions: ribose 5-phosphate co-substrate (5 mM), 10 mM MgCl2, pH 7, 25°C, reverse direction, ribose production. The source says: coupled spectrophotometric assay (HXK/G6PDH, NADP) on T. brucei ribokinase | the enzyme could indeed work in the ribose production direction

Substrate in data set [2]: Nc1ncnc2c1ncn2[C@@H]1O[C@H](COP(=O)(O)OP(=O)(O)OP(=O)(O)O)[C@@H](O)[C@H]1O
The experiment in a line: coupled spectrophotometric assay (PK/LDH, NADH). The following applies: ribose co-substrate (5 mM), 10 mM MgCl2, pH 7, 25°C, ribose 5-phosphate production direction. The format is biochemical, Trypanosoma brucei. The source says:
coupled spectrophotometric assay (PK/LDH, NADH) on T. brucei ribokinase | enzyme kinetics of heterologously expressed T. brucei ribokinase were characterized

B1: T. brucei ribokinase (Trypanosoma brucei brucei TREU927) (protein)
chain: MSAAGVKSGNGCIADTPIVVVGACFVDYVAYVDHLPQVGESLRCRSFSKGFGGKGSNQAVCAGRLGASVSMVGAVGTDGDGADYIANFQRNGVQVSNVYRMENTSTGLAMIFVDSTTSHNEIVFSPNATGALTVDYLRKQSDNYNNFFGPKCRYIILQNEIPVETTLDVLKEAHTRGIYTVFNAAPAPSADEVAVVKPFLSYVSLFCVNEVEASMITGIDVKDTQSAILATEEMQKLGAHSVVTTLGGNGYVIGEKGKPPRHLPSITVKAVDSTGAGDCFVGAMVFYLSMGKSLEESCKRANMIAAISVQRPGTQSSYPTLDELPAEVKECKI
notes: N-terminal His-tag from pET28a(+), expressed in E. coli BL21(DE3), Ni chelate purified
Turning to B1, the Km in data set [1] amounted to 250 µM; in data set [2], 240 µM.
